The target in one test is GST-Rac1^QP (UniProt P63000). The test can be described thus: pull-down.
Another test deals with GST-Arf1 (Arf1^∆N17) (UniProt P84077). The test can be described thus: pull-down.
Chain of GST-Arf1 (Arf1^∆N17) (P84077 18-181): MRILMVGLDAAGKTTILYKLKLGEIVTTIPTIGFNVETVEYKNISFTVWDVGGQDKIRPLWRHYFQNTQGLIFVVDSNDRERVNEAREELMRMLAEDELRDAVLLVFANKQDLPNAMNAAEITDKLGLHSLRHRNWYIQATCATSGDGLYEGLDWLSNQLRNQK

As for “WRC with Sra1^Y967A (D site disrupted) (from UniProt Q7L576;Q9Y2A7;Q92558;Q9NYB9;Q8WUW1) (complex)”, in the test with GST-Rac1^QP, the Kd was 2 µM. That is a single-digit micromolar value.

Turning to “∆WRC230^D-Rac1 (Rac1 tethered to the C terminus of Sra1) (from UniProt Q7L576;Q9Y2A7;Q92558;Q9NYB9;Q8WUW1) (complex)”, in the test with GST-Arf1 (Arf1^∆N17), the dissociation constant Kd amounted to 5.33 µM.
